The record followed here is patent US20100203582.

In this data set the target is T1, peptide SAVLQMGFRK, Substrate (7).
T1 chain: SAVLQMGFRK

B1: wild-type severe acute respiratory syndrome-associated coronavirus 3C-like protease (SARS-CoV 3CL^pro) (protein)
chain: SGFRKMAFPSGKVEGCMVQVTCGTTTLNGLWLDDTVYCPRHVICTAEDMLNPNYEDLLIRKSNHSFLVQAGNVQLRVIGHSMQNCLLRLKVDTSNPKTPKYKFVRIQPGQTFSVLACYNGSPSGVYQCAMRPNHTIKGSFLNGSCGSVGFNIDYDCVSFCYMHHMELPTGVHAGTDLEGKFYGPFVDRQTAQAAGTDTTITLNVLAWLYAAVINGDRWFLNRFTTTLNDFNLVAMKYNYEPLTQDHVDILGPLSAQTGIAVLDMCAALKELLQNGMNGRTILGSTILEDEFTPFDVVRQCSGVTFQ
On to B1, for which the Km result is “Km is 76.6±3.5 µM”, the kcat result is given as “kcat is 1.6±0.2 min^-1” and the kcat/Km result is listed as “kcat/Km=0.02 µM^-1min^-1”.
